Data taken from publication PMC3763551, “The tRNA recognition mechanism of the minimalist SPOUT methyltransferase, TrmL” (Nucleic Acids Research, 2013).

Legend:
EcTrmL [1] = target: T1, EcTrmL (Escherichia coli, UniProt P0AGJ7, R104E); assay: isothermal titration calorimetry, one-site model; assay type: binding
T1 construct: gene trmL

EcTrmL [2] = target: T2, EcTrmL (Escherichia coli, UniProt P0AGJ7, R59E); assay: isothermal titration calorimetry, one-site model; assay type: binding
T2 construct: gene trmL

EcTrmL [3] = target: T3, EcTrmL (Escherichia coli, UniProt P0AGJ7, K81E); assay: isothermal titration calorimetry, one-site model; assay type: binding
T3 construct: gene trmL

EcTrmL [4] = target: T4, EcTrmL (Escherichia coli, UniProt P0AGJ7, R45E); assay: isothermal titration calorimetry, one-site model; assay type: binding
T4 construct: gene trmL

EcTrmL [5] = target: T5, EcTrmL (Escherichia coli, UniProt P0AGJ7, R46E); assay: isothermal titration calorimetry, one-site model; assay type: binding
T5 construct: gene trmL

EcTrmL [6] = target: T6, EcTrmL (Escherichia coli, UniProt P0AGJ7, R129E); assay: isothermal titration calorimetry, one-site model; assay type: binding
T6 construct: gene trmL

EcTrmL [7] = target: T7, EcTrmL (Escherichia coli, UniProt P0AGJ7, R43E); assay: isothermal titration calorimetry, one-site model; assay type: binding
T7 construct: gene trmL

EcTrmL [8] = target: T8, EcTrmL (Escherichia coli, UniProt P0AGJ7, R20E); assay: isothermal titration calorimetry, one-site model; assay type: binding
T8 construct: gene trmL

EcTrmL [9] = target: T9, EcTrmL (Escherichia coli, UniProt P0AGJ7, K42E); assay: isothermal titration calorimetry, one-site model; assay type: binding
T9 construct: gene trmL

[10] = target: the molecule itself; assay: SEC; analytical gel filtration, Superdex 75 (10/30), 20 mM Tris-HCl pH 7.5, 100 mM NaCl, 5 mM MgCl2, 5 mM beta-Me, 300 ul injected, 0.5 ml/min, against standard proteins
[11] = target: the molecule itself; assay: not stated; oligomeric state of the purified Glu single mutants in solution; the method is not named for this statement

Molecule | stoichiometry N [11] | also measured
Nc1ncnc2c1ncn2[C@@H]1O[C@H](CSCC[C@H](N)C(=O)O)[C@@H](O)[C@H]1O [SAH, S-adenosyl-homocysteine] |  | Kd (EcTrmL [1]): 33 µM; Kd (EcTrmL [2]): 27 µM; Kd (EcTrmL [3]): 30 µM; Kd (EcTrmL [4]): 29 µM; Kd (EcTrmL [5]): 29 µM; Kd (EcTrmL [6]): 19 µM; Kd (EcTrmL [7]): 39 µM; Kd (EcTrmL [8]): 45 µM; Kd (EcTrmL [9]): 20 µM
tRNA (Um34/Cm34) methyltransferase TrmL from E. coli, wild type (enzyme, UniProt P0AGJ7 1-157, looked up, TrmL, tRNA (Um34/Cm34) methyltransferase, E. coli; gene amplified from the genome of E. coli MT102; 157 amino acids as printed; also called EcTrmL; Yibk; source: E. coli BL21 (DE3), pET30b, purified (Ni-NTA, Superdex 75 gel filtration)) MLNIVLYEPEIPPNTGNIIRLCANTGFRLHIIEPMGFAWDDKRLRRAGLDYHEFTAVTRHHDYRAFLEAENPQRLFALTTKGTPAHSAVSYQDGDYLMFGPETRGLPASILDALPAEQKIRIPMVPDSRSMNLSNAVSVVVYEAWRQLGYPGAVLRD |  | stoichiometry N [10]: 2
EcTrmL-R104E (enzyme, E. coli, UniProt P0AGJ7 1-157, looked up, TrmL, E. coli, 157 amino acids, with R104E; source: E. coli BL21 (DE3), pET30b, purified (Ni-NTA, Superdex 75 gel filtration)) MLNIVLYEPEIPPNTGNIIRLCANTGFRLHIIEPMGFAWDDKRLRRAGLDYHEFTAVTRHHDYRAFLEAENPQRLFALTTKGTPAHSAVSYQDGDYLMFGPETEGLPASILDALPAEQKIRIPMVPDSRSMNLSNAVSVVVYEAWRQLGYPGAVLRD | 2 | 
EcTrmL-R74E (enzyme, E. coli, UniProt P0AGJ7 1-157, looked up, TrmL, E. coli, 157 amino acids, with R74E; source: E. coli BL21 (DE3), pET30b, purified (Ni-NTA, Superdex 75 gel filtration)) MLNIVLYEPEIPPNTGNIIRLCANTGFRLHIIEPMGFAWDDKRLRRAGLDYHEFTAVTRHHDYRAFLEAENPQELFALTTKGTPAHSAVSYQDGDYLMFGPETRGLPASILDALPAEQKIRIPMVPDSRSMNLSNAVSVVVYEAWRQLGYPGAVLRD | 2 | 
EcTrmL-R129E (enzyme, E. coli, UniProt P0AGJ7 1-157, looked up, TrmL, E. coli, 157 amino acids, with R129E; source: E. coli BL21 (DE3), pET30b, purified (Ni-NTA, Superdex 75 gel filtration)) MLNIVLYEPEIPPNTGNIIRLCANTGFRLHIIEPMGFAWDDKRLRRAGLDYHEFTAVTRHHDYRAFLEAENPQRLFALTTKGTPAHSAVSYQDGDYLMFGPETRGLPASILDALPAEQKIRIPMVPDSESMNLSNAVSVVVYEAWRQLGYPGAVLRD | 2 | 
EcTrmL-K81E (enzyme, E. coli, UniProt P0AGJ7 1-157, looked up, TrmL, E. coli, 157 amino acids, with K81E; source: E. coli BL21 (DE3), pET30b, purified (Ni-NTA, Superdex 75 gel filtration)) MLNIVLYEPEIPPNTGNIIRLCANTGFRLHIIEPMGFAWDDKRLRRAGLDYHEFTAVTRHHDYRAFLEAENPQRLFALTTEGTPAHSAVSYQDGDYLMFGPETRGLPASILDALPAEQKIRIPMVPDSRSMNLSNAVSVVVYEAWRQLGYPGAVLRD | 2 | 
EcTrmL-R43E (enzyme, E. coli, UniProt P0AGJ7 1-157, looked up, TrmL, E. coli, 157 amino acids, with R43E; source: E. coli BL21 (DE3), pET30b, purified (Ni-NTA, Superdex 75 gel filtration)) MLNIVLYEPEIPPNTGNIIRLCANTGFRLHIIEPMGFAWDDKELRRAGLDYHEFTAVTRHHDYRAFLEAENPQRLFALTTKGTPAHSAVSYQDGDYLMFGPETRGLPASILDALPAEQKIRIPMVPDSRSMNLSNAVSVVVYEAWRQLGYPGAVLRD | 2 | 
EcTrmL-K42E (enzyme, E. coli, UniProt P0AGJ7 1-157, looked up, TrmL, E. coli, 157 amino acids, with K42E; source: E. coli BL21 (DE3), pET30b, purified (Ni-NTA, Superdex 75 gel filtration)) MLNIVLYEPEIPPNTGNIIRLCANTGFRLHIIEPMGFAWDDERLRRAGLDYHEFTAVTRHHDYRAFLEAENPQRLFALTTKGTPAHSAVSYQDGDYLMFGPETRGLPASILDALPAEQKIRIPMVPDSRSMNLSNAVSVVVYEAWRQLGYPGAVLRD | 2 | 
EcTrmL-R28E (enzyme, E. coli, UniProt P0AGJ7 1-157, looked up, TrmL, E. coli, 157 amino acids, with R28E; source: E. coli BL21 (DE3), pET30b, purified (Ni-NTA, Superdex 75 gel filtration)) MLNIVLYEPEIPPNTGNIIRLCANTGFELHIIEPMGFAWDDKRLRRAGLDYHEFTAVTRHHDYRAFLEAENPQRLFALTTKGTPAHSAVSYQDGDYLMFGPETRGLPASILDALPAEQKIRIPMVPDSRSMNLSNAVSVVVYEAWRQLGYPGAVLRD | 2 | 
EcTrmL-R46E (enzyme, E. coli, UniProt P0AGJ7 1-157, looked up, TrmL, E. coli, 157 amino acids, with R46E; source: E. coli BL21 (DE3), pET30b, purified (Ni-NTA, Superdex 75 gel filtration)) MLNIVLYEPEIPPNTGNIIRLCANTGFRLHIIEPMGFAWDDKRLREAGLDYHEFTAVTRHHDYRAFLEAENPQRLFALTTKGTPAHSAVSYQDGDYLMFGPETRGLPASILDALPAEQKIRIPMVPDSRSMNLSNAVSVVVYEAWRQLGYPGAVLRD | 2 | 
EcTrmL-R59E (enzyme, E. coli, UniProt P0AGJ7 1-157, looked up, TrmL, E. coli, 157 amino acids, with R59E; source: E. coli BL21 (DE3), pET30b, purified (Ni-NTA, Superdex 75 gel filtration)) MLNIVLYEPEIPPNTGNIIRLCANTGFRLHIIEPMGFAWDDKRLRRAGLDYHEFTAVTEHHDYRAFLEAENPQRLFALTTKGTPAHSAVSYQDGDYLMFGPETRGLPASILDALPAEQKIRIPMVPDSRSMNLSNAVSVVVYEAWRQLGYPGAVLRD | 2 | 
EcTrmL-R20E (enzyme, E. coli, UniProt P0AGJ7 1-157, looked up, TrmL, E. coli, 157 amino acids, with R20E; source: E. coli BL21 (DE3), pET30b, purified (Ni-NTA, Superdex 75 gel filtration)) MLNIVLYEPEIPPNTGNIIELCANTGFRLHIIEPMGFAWDDKRLRRAGLDYHEFTAVTRHHDYRAFLEAENPQRLFALTTKGTPAHSAVSYQDGDYLMFGPETRGLPASILDALPAEQKIRIPMVPDSRSMNLSNAVSVVVYEAWRQLGYPGAVLRD | 2 | 
EcTrmL-R64E (enzyme, E. coli, UniProt P0AGJ7 1-157, looked up, TrmL, E. coli, 157 amino acids, with R64E; source: E. coli BL21 (DE3), pET30b, purified (Ni-NTA, Superdex 75 gel filtration)) MLNIVLYEPEIPPNTGNIIRLCANTGFRLHIIEPMGFAWDDKRLRRAGLDYHEFTAVTRHHDYEAFLEAENPQRLFALTTKGTPAHSAVSYQDGDYLMFGPETRGLPASILDALPAEQKIRIPMVPDSRSMNLSNAVSVVVYEAWRQLGYPGAVLRD | 2 | 
EcTrmL-R45E (enzyme, E. coli, UniProt P0AGJ7 1-157, looked up, TrmL, E. coli, 157 amino acids, with R45E; source: E. coli BL21 (DE3), pET30b, purified (Ni-NTA, Superdex 75 gel filtration)) MLNIVLYEPEIPPNTGNIIRLCANTGFRLHIIEPMGFAWDDKRLERAGLDYHEFTAVTRHHDYRAFLEAENPQRLFALTTKGTPAHSAVSYQDGDYLMFGPETRGLPASILDALPAEQKIRIPMVPDSRSMNLSNAVSVVVYEAWRQLGYPGAVLRD | 2 | 
